Data from patent US20140017714.

Tests used:
[1] = target: T1, full-length human recombinant IGFBP-4
T1 chain: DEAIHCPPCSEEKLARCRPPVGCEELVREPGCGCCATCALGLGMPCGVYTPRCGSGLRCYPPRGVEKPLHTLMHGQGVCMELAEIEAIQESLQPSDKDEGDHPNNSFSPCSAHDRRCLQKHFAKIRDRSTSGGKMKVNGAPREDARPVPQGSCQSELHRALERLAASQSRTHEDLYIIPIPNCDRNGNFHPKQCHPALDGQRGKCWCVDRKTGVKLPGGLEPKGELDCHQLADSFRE

[2] = target: full-length human recombinant IGFBP-5
Sequence of full-length human recombinant IGFBP-5 (chain, as listed by the source): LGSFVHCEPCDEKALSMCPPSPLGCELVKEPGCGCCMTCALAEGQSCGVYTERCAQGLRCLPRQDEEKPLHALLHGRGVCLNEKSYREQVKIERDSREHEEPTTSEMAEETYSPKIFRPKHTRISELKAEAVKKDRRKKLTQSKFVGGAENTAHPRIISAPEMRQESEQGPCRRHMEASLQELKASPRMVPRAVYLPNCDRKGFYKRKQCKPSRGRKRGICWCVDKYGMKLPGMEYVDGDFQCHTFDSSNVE

B1: atherosclerotic form of PAPP-A (protein)
chain: EARGATEEPSPPSRALYFSGRGEQLRLRADLELPRDAFTLQVWLRAEGGQRSPAVITGLYDKCSYISRDRGWVVGIHTISDQDNKDPRYFFSLKTDRARQVTTINAHRSYLPGQWVYLAATYDGQFMKLYVNGAQVATSGEQVGGIFSPLTQKCKVLMLGGSALNHNYRGYIEHFSLWKVARTQREILSDMETHGAHTALPQLLLQENWDNVKHAWSPMKDGSSPKVEFSNAHGFLLDTSLEPPLCGQTLCDNTEVIASYNQLSSFRQPKVVRYRVVNLYEDDHKNPTVTREQVDFQHHQLAEAFKQYNISWELDVLEVSNSSLRRRLILANCDISKIGDENCDPECNHTLTGHDGGDCRHLRHPAFVKKQHNGVCDMDCNYERFNFDGGECCDPEITNVTQTCFDPDSPHRAYLDVNELKNILKLDGSTHLNIFFAKSSEEELAGVATWPWDKEALMHLGGIVLNPSFYGMPGHTHTMIHEIGHSLGLYHVFRGISEIQSCSDPCMETEPSFETGDLCNDTNPAPKHKSCGDPGPGNDTCGFHSFFNTPYNNFMSYADDDCTDSFTPNQVARMHCYLDLVYQGWQPSRKPAPVALAPQVLGHTTDSVTLEWFPPIDGHFFERELGSACHLCLEGRILVQYASNASSPMPCSPSGHWSPREAEGHPDVEQPCKSSVRTWSPNSAVNPHTVPPACPEPQGCYLELEFLYPLVPESLTIWVTFVSTDWDSSGAVNDIKLLAVSGKNISLGPQNVFCDVPLTIRLWDVGEEVYGIQIYTLDEHLEIDAAMLTSTADTPLCLQCKPLKYKVVRDPPLQMDVASILHLNRKFVDMDLNLGSVYQYWVITISGTEESEPSPAVTYIHGSGYCGDGIIQKDQGEQCDDMNKINGDGCSLFCRQEVSFNCIDEPSRCYFHDGDGVCEEFEQKTSIKDCGVYTPQGFLDQWASNASVSHQDQQCPGWVIIGQPAASQVCRTKVIDLSEGISQHAWYPCTISYPYSQLAQTTFWLRAYFSQPMVAAAVIVHLVTDGTYYGDQKQETISVQLLDTKDQSHDLGLHVLSCRNNPLIIPVVHDLSQPFYHSQAVRVSFSSPLVAISGVALRSFDNFDPVTLSSCQRGETYSPAEQSCVHFACEKTDCPELAVENASLNCSSSDRYHGAQCTVSCRTGYVLQIRRDDELIKSQTGPSVTVTCTEGKWNKQVACEPVDCSIPDHHQVYAASFSCPEGTTFGSQCSFQCRHPAQLKGNNSLLTCMEDGLWSFPEALCELMCLAPPPVPNADLQTARCRENKHKVGSFCKYKCKPGYHVPGSSRKSKKRAFKTQCTQDGSWQEGACVPVTCDPPPPKFHGLYQCTNGFQFNSECRIKCEDSDASQGLGSNVIHCRKDGTWNGSFHVCQEMQGQCSVPNELNSNLKLQCPDGYAIGSECATSCLDHNSESIILPMNVTVRDIPHWLNPTRVERVVCTAGLKWYPHPALIHCVKGCEPFMGDNYCDAINNRAFCNYDGGDCCTSTVKTKKVTPFPMSCDLQGDCACRDPQAQEHSRKDLRGYSHG
[1]
  proteolytic cleavage of IGFBP-4, Western blotting: atherosclerotic form of PAPP-A was shown to cleave IGFBP-4 with the same efficiency as recombinant PAPP-A

B2: human recombinant PAPP-A (protein)
chain: B1 chain
[1]
  proteolytic cleavage of IGFBP-4, Western blotting: Western blotting detection of proteolytic fragments of IGFBP-4 demonstrating PAPP-A protease activity
[2]
  proteolytic cleavage of IGFBP-5, SDS-PAGE with Coomassie staining: PAPP-A-dependent cleavage of IGFBP-5 determined by sodium dodecyl sulphate polyacrylamide gel electrophoresis
